# In patent publication US20240390512A1, “METHODS OF TREATING CHEMOTHERAPY-RESISTANT CANCER WITH AN ANTIBODY-DRUG CONJUGATE” (DAIICHI SANKYO COMPANY, LIMITED, priority 2021, published 2024):
# Residue numbers refer to the chain shown, from its start.
# B1: rG055: rat anti-human CDH6 monoclonal antibody produced by hybridoma rG055; variable regions SEQ ID NO: 20 and 25 (antibody, listed as Rattus norvegicus, V domains shown)
# VL: DVQMTHSPSYLAASPGESVSISCKTSKNISNYLVWYQQKPGEAYKLLIYSGSTLQSGTPSRFSGSGSGTDFTLTIRSLEPEDFGLYFCQQYYEKPFTFGSGTKLEIKRA
# VH: EVQLQESGPGLVRPSQSLSLSCSVTDYSITSNYWGWIRRFPGNKMEWMGYITYSGYTSYNPSLQSRISITRDTSKNQFFLQLNSVTAEDTATYYCARSINHGGYSYVVDAWGPGASVTVSS
# B2: rG061: rat anti-human CDH6 monoclonal antibody produced by hybridoma rG061; variable regions SEQ ID NO: 40 and 45 (antibody, listed as Rattus norvegicus, V domains shown)
# VL: B1 VL with H6Q, T25A, S26T, N28S, V34A, L46V, F87S, F96L
# VH: EVQLQESGPGLVKPSQSLSLTCSVTGYSITTYYWGWIRKFPGNKMEWMGYISYSGRTSYNPSLKSRMSITRDASKNQFFLQLNSVTTDDTATYYCARSPINHGGYWYFDFWGPGTMVTVSS
# B3: rG019: rat anti-human CDH6 monoclonal antibody produced by hybridoma rG019; variable regions SEQ ID NO: 10 and 15 (antibody, listed as Rattus norvegicus, V domains shown)
# VL: DIQMTQSPSLLSASVGDRVTLNCKASQNIYKNLAWYQQKLGEGPKLLIYDANTLQTGIPSRFSGSGSGSDFTLTISSLQPEDVATYFCQQYYSGWAFGGVTNLELKRA
# VH: QVQLQQSGAELVKPGSSVKISCKASGYTFTRNFMHWIKQQPGNGLEWIGWIYCGDGETEYNQKFNGKATLTADRSSSTAYMELSRLTSEDSAVYFCARGVYGGFAGGYFDFWGQGVMVTVSS
# B4: rG056: rat anti-human CDH6 monoclonal antibody produced by hybridoma rG056; variable regions SEQ ID NO: 30 and 35 (antibody, listed as Rattus norvegicus, V domains shown)
# VL: DVQMTQSPSSLAASPGESVSISCRATKSIGIYLAWYQQKPGKTFKLLIYSGSTLQSGTPSRFSGSGSGTDFTLTIRSLEPEDFGLYFCQQFYENPFTFGSGTKLEIRRA
# VH: EVQLQESGPGLVKPSQSLSLTCSVTDYSITTYFWGWIRKFPGNKMEWMGYMSYRGGTSYNPSLKSRISITRDTSKNQFFLQLNSVTTEDTATYYCARCPNYGGHSLVFDYWGQGVMVTVSS
# Molecular target: T1, human CDH6 (full-length and EC domain deletion mutants) (Homo sapiens, UniProt P55285)
# T1 construct: each one of the five EC domains could be deleted from full-length human CDH6; 3xFLAG (deletion mutants only, from the vector p3×FLAG-CMV-9); expressed in transfected cells; host or cells: 293α cells
# T1 sequence (P55285 160-790): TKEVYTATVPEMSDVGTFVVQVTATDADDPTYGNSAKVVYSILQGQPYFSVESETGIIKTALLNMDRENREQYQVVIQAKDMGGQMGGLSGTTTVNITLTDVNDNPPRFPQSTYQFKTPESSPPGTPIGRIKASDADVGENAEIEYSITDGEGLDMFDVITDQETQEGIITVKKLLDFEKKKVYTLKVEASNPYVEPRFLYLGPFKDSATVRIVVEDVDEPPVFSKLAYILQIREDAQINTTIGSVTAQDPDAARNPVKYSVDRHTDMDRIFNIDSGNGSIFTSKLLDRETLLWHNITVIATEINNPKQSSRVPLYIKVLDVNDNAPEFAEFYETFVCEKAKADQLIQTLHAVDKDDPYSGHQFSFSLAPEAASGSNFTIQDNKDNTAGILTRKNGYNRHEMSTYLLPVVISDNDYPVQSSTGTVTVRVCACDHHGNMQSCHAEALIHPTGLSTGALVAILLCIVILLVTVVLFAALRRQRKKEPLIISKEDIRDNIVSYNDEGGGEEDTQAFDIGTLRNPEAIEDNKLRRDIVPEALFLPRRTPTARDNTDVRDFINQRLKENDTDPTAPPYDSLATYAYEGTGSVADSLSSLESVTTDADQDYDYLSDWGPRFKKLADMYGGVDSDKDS
# Assay: Epitope analysis of rat anti-CDH6 antibody by flow cytometry using domain deletion mutants
# Assay type: binding
# Details: flow cytometry; transfected 293α cells; antibody 20 nM
# Source text: (§1) The full-length extracellular region of human CDH6 has five extracellular domains, EC1 (SEQ ID NO: 2), EC2 (SEQ ID NO: 3), EC3 (SEQ ID NO: 4), EC4 (SEQ ID NO: 5), and EC5 (SEQ ID NO: 6). A gene to be expressed such that each one of the five EC domains could be deleted from full-length human CDH6 was synthesized by GeneArt, and incorporated into p3×FLAG-CMV-9 vectors for mammalian expression (Sigma-Aldrich Co. LLC) according to a method known to a person skilled in the art in order to produce an expression vector for each domain deletion mutant lacking any one of EC1 to EC5.
# (§2) The epitopes to which the rat anti-human CDH6 antibodies bound were identified by flow cytometry analysis using a 293α cell line transfected with each EC domain deletion vector. Using Lipofectamine 2000 (Thermo Fisher Scientific Inc.), each domain deletion mutant expression vector produced in Reference Example 2)-2-1, or pcDNA3.1-hCDH6 for the expression of full-length human CDH6 was transiently introduced into a 293α cell line, which was a cell line derived from HEK293 cells by stable transfection with integrin αv and integrin […] expression vectors. The cells were cultured overnight under conditions of 37° C. and 5% CO2, and thereafter, a cell suspension was prepared. The suspension of the transfected 293α cells was centrifuged, and a supernatant was then removed. Thereafter, the cells were suspended by the addition of each of the 4 rat anti-CDH6 monoclonal antibodies (clone Nos: rG019, rG055, rG056 and rG061), which had been prepared in Reference Example 1)-7, or rat IgG control (R&D Systems, Inc.) (final concentration: 20 nM). The cells were left standing at 4° C. for 1 hour. The cells were washed twice with PBS supplemented with 5% FBS, and then suspended by the addition of Anti-Rat IgG (whole molecule)-FITC antibody produced in rabbit (Sigma-Aldrich Co. LLC) that had been 50-fold diluted with PBS supplemented with 5% FBS. The cells were left standing at 4° C. for 1 hour. The cells were washed twice with PBS supplemented with 5% FBS, followed by detection using a flow cytometer (Canto II; BD Biosciences). The data was analyzed using FlowJo (Tree Star, Inc.). In the histograms of FIGS. 2-1 to 2-6, the abscissa depicts FITC fluorescence intensity indicating the amount of the antibody bound, and the ordinate depicts cell count. […] Fluorescence intensity is enhanced when the antibody binds to full-length hCDH6 or each EC domain deletion mutant on the surface of cells. The rat IgG control binds to none of the transfected cells.
row,Molecule,binding to EC1 deletion mutant
1,B1,bind
2,B2,bind
3,B3,bind
4,B4,bind

# Molecular target: T2, human CDH6 (full-length and EC domain deletion mutants) (Homo sapiens, UniProt P55285, DEL160-268)
# T2 construct: each one of the five EC domains could be deleted from full-length human CDH6; 3xFLAG (deletion mutants only, from the vector p3×FLAG-CMV-9); expressed in transfected cells; host or cells: 293α cells
# T2 sequence (P55285 with tags, fused parts or gaps DEL160-268): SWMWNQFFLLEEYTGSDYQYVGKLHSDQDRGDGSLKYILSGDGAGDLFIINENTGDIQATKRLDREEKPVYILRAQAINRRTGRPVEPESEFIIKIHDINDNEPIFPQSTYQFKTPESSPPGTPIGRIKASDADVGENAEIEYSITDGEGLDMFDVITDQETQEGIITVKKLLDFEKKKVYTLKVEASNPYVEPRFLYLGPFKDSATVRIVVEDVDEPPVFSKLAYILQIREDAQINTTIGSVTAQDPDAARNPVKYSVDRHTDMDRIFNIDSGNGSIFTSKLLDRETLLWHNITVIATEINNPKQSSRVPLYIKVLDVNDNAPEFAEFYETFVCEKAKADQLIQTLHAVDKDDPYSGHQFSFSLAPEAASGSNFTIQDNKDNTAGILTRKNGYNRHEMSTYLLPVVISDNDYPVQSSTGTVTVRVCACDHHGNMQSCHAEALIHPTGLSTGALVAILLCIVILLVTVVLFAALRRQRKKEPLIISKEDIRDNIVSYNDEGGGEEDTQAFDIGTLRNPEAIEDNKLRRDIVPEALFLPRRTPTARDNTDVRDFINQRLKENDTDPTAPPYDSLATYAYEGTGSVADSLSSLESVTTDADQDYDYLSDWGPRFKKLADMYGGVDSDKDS
# Assay: as above
# Assay type: binding
# Details: flow cytometry; transfected 293α cells; antibody 20 nM
# Source text: as §1, §2
row,Molecule,binding to EC2 deletion mutant
1,B1,bind
2,B2,bind
3,B3,bind
4,B4,bind
